Results on one molecule are retold here after patent publication US20150337031A1 (CELYAD S A, published 2015).

Assay [1] has as its target T1, 13 amino acid sequence from human MEF2C (SEQ ID NO: 2), GNPNLLPLAHPSL (human).
T1 construct: Synthetic peptide (GenScript); Coated on the plate in ELISA, injected over the immobilised antibody in Biacore; also called wild-type peptide; antigen peptide
T1 peptide: GNPNLLPLAHPSL
The assay is described as follows: SPR, BIAcore T200, calculated as the inverse of Kd. Here is the method:
(§1) Affinity of the antibody for the peptide was measured by using BIAcoreT200. After covalent coupling of the antibody onto the Series S Sensor Chip CM5, different concentrations (0.078, 0.781, 1.563, 3.125 and 6.250 μM) of peptide were injected serially over the antibody and blank flow cell at a flow rate of 30 μl/min. Association and dissociation phases were monitored for 30 and 150 seconds, respectively. Peptide with the concentration of 6.250 μM was set as repetition. The antibody surface was regenerated with 10 mM Glycine-HCl, pH2.0, 30 s injections 1 time.
(§2) About 10000 RU of antibody was immobilized on the sensor chip via primary amine groups. Binding data was processed, double referenced with response from blank injections, and fit to a 1:1 interaction model using the BIAcore T200 evaluation software.

Assay [2] addresses T2, alanine scanning mutant of the MEF2C peptide of SEQ ID NO: 2, asparagine at position 2 replaced by alanine (human).
T2 construct: Member of the alanine scanning peptide library; also called mutation at peptide position 2
T2 peptide: GAPNLLPLAHPSL
The assay is described as follows: indirect ELISA on coated alanine mutant peptides (FIG. 7). Here is the method: (§3) ELISA was performed to map the epitope of the test antibody. The peptides were coated in 96-well microtiter plates at 4° C. for 16 h. The plates were then blocked with 5% MPBS at 37° C. for 2 h. After washed with PBS-T, 100 μl target/control antibody (0.5 μg/ml) was added and incubated at 37° C. for 2 h. The plates were washed with PBS-T and incubated with 100 μl of 0.1 μg/ml goat anti-mouse IgG (H+L) at 37° C. for 1 h. The plates were washed with PBS-T and incubated with rabbit anti goat IgG (H+L) [HRP] at 37° C. for 1 h. After washing the plate with PBS-T, the color was developed with 100 μl TMB substrate for 10 minutes. The reaction was stopped by adding 100 μl of 1 M HCl and the absorbance was measured at 450 nm using a spectrometer. […] A non-coated well was set as blank control and the peptide library incubated with the detection antibodies only was set as the negative control.
(§4) Thirteen mutant peptides were numbered in numerical order and their binding activity with target/control antibodies were determined by indirect ELISA. The non-specific binding between the peptide, the target antibody and rabbit anti-goat IgG [HRP] was determined. The non-specific binding between the peptide, goat anti-mouse IgG and rabbit anti-goat IgG [HRP] was determined as well.

Assay [3] has as its target T3, alanine scanning mutant of the MEF2C peptide of SEQ ID NO: 2, proline at position 3 replaced by alanine (human).
T3 construct: Member of the alanine scanning peptide library; also called mutation at peptide position 3
T3 peptide: GNANLLPLAHPSL
The assay is described as above. As to the method:
as §3, §4

For assay [4], the target named is T4, alanine scanning mutant of the MEF2C peptide of SEQ ID NO: 2, asparagine at position 4 replaced by alanine (human).
T4 construct: Member of the alanine scanning peptide library; also called mutation at peptide position 4
T4 peptide: GNPALLPLAHPSL
Described as above. Here is the method:
as §3, §4

Assay [5] concerns the target T5, alanine scanning mutant of the MEF2C peptide of SEQ ID NO: 2, leucine at position 5 replaced by alanine (human).
T5 construct: Member of the alanine scanning peptide library; also called mutation at peptide position 5
T5 peptide: GNPNALPLAHPSL
The assay is described as above. Here is the method:
as §3, §4

For assay [6], the target named is T6, Mutated peptide on Aa H (10th position).
T6 peptide: GNPNLLPLAAPSL
The experiment in a line: indirect ELISA on coated peptide, antibody at 0.5 µg/ml, OD450. Here is the method:
as §3, §4
In general terms: An ELISA detects its analyte on a solid surface through an enzyme-linked reagent.

The target in assay [7] is T7, Mutated peptide on Aa P (11th position).
T7 peptide: GNPNLLPLAHASL
The assay is described as above. Here is the method:
as §3, §4

For assay [8], the target named is T8, Mutated peptide on Aa L (13th position).
T8 peptide: GNPNLLPLAHPSA
The description is as above. Here is the method: as §3, §4

Assay [9] addresses T1, 13 amino acid sequence from human MEF2C …. The experiment in a line: SPR, BIAcore T200, antibody coupled to CM5 chip, peptide injected, 1:1 model. As to the method:
as §1, §2

In assay [10] the target is T9, alanine scanning mutant of the MEF2C peptide of SEQ ID NO: 2, proline at position 7 replaced by alanine (human).
T9 construct: Member of the alanine scanning peptide library; also called mutation of the seventh residue; P7
T9 peptide: GNPNLLALAHPSL
The experiment in a line: direct ELISA, relative quantification against a wild-type peptide standard curve (FIG. 8). Here is the method:
as §3
(§5) In addition to the alanine scanning, a relative quantification of binding was performed. Each of the mutated peptides was assayed in direct ELISA according to the procedures described above and compared to a standard curve performed with the wild-type peptide. Relative binding quantification was then performed as described previously. […] Therefore, considering the combination of the data obtained in FIGS. 7 and 8 an epitope target of the anti-MEF2C mAb is the following amino acid sequence: […]

Assay [11] deals with T10, alanine scanning mutant of the MEF2C peptide of SEQ ID NO: 2, glycine at position 1 replaced by alanine (human).
T10 construct: Member of the alanine scanning peptide library synthesised by GenScript; also called mutation of the first residue; G1
T10 peptide: ANPNLLPLAHPSL
The description is as above. As to the method:
as §3, §5

Assay [12] addresses T2, alanine scanning mutant of the MEF2C …. The description is as above. Here is the method: as §3, §5
In assay [13] the target is T3, alanine scanning mutant of the MEF2C …. Described as above. Here is the method: as §3, §5
In assay [14] the target is T4, alanine scanning mutant of the MEF2C …. The description is as above. Here is the method:
as §3, §5

In assay [15] the target is T5, alanine scanning mutant of the MEF2C …. The description is as above. As to the method:
as §3, §5

The target in assay [16] is T11, Mutated peptide on Aa L (6th position).
T11 peptide: GNPNLAPLAHPSL
The experiment in a line: ELISA on coated mutant peptide, relative quantification against a standard curve of the wild-type peptide. Here is the method: as §3, §5

The target of assay [17] is T12, Mutated peptide on Aa L (8th position).
T12 peptide: GNPNLLPAAHPSL
Described as above. Here is the method:
as §3, §5

B1: anti-MEF2C monoclonal antibody produced by the hybridoma cell line deposited with BCCM/LMBP under Accession No. LMBP 9949CB (antibody, V domains shown)
VH: EVQLQQSGPELVKPGASVKISCKASAYSFTGYFMNWVKQSHGKSLEWIGRINPYNGNTFYNQNFKGKATLTVDRSSSTAHMQILSLTSEDSTVYYCGREGATGAMDYWGQGTSVTVLP
VL: DVVMTQTPLSLPVSLGDQASISCRSSQSLVHSNGDTYLHWYLQMPGQSPRLLIYKVSNRFSGVPDRFSGSGSGTDFTLKISRVEAEDLGVYFCSQSTHVPPTFGGGTKLEIK
notes: IgG from a mouse hybridoma (detected with anti-mouse IgG); also called anti-MEF2C mAb; α MEF2C
One may read the Kd as a measure of binding affinity in units of concentration. A low value points to a tighter complex. As a reminder, the koff is the rate constant with which the complex falls apart. Read a high koff as fast dissociation. The term kon denotes the rate constant with which the complex forms. Higher therefore signals faster complex formation. On to B1, for which the Ka in [1] was 6.37e+06 M⁻¹. Moreover, the binding result in assay [2] is “no binding (tested: 0.5 µg/ml antibody)”; in assay [3], “no binding (tested: 0.5 µg/ml antibody)”; in assay [4], “no binding (tested: 0.5 µg/ml antibody)”; in [5], “no binding (tested: 0.5 µg/ml antibody)”; in [6], “binds”; in assay [7] it was “binds”. Further, the binding result in [8], in assay [16] and in [17] was “binds” each time. Moreover, in assay [9], binding was put at a Kd of 157 nM. In [9], this molecule returned a koff of 0.00367 s⁻¹. In assay [9], this molecule registered a kon of 23400 M⁻¹ s⁻¹. The “loss of binding relative to the wild-type peptide” value is 96.4% in assay [10] and 92.9% in assay [11]. For the same molecule, the “decrease of the binding relative to the wild-type peptide” value in assay [12], in [13], in [14] and in assay [15] was > 99% throughout.
